What was measured:
[1] = target: cynomolgus TNFR2 on cells (cynomolgus); experiment: flow cytometry on cynomolgus PBMC, antibody at 10 ug/mL, anti-human Fc-PE secondary; negative control
[2] = target: human TNFR2 on cells (human) (UniProt P20333); experiment: flow cytometry on human PBMC, antibody at 10 ug/mL, anti-human Fc-PE secondary; negative control
Chain of human TNFR2 on cells (human) (P20333 23-461): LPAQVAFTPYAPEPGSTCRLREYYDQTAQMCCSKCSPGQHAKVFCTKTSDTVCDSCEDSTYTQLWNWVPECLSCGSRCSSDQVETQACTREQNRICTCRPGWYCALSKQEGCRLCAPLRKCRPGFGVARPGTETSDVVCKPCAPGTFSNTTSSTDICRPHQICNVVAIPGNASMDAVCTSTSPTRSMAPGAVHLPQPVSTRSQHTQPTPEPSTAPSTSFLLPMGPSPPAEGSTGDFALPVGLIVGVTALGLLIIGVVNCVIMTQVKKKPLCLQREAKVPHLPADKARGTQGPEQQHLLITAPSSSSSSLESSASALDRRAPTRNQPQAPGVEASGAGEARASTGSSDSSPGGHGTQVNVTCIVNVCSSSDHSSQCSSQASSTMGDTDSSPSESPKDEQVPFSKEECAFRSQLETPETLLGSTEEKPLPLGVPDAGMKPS

% CD4^+ ab^+ Donor 1 [1]: 0.2%
% CD4^+ ab^+ Donor 2 [1]: 0.5%
% CD8^+ ab^+ Donor 1 [1]: 0.2%
% CD8^+ ab^+ Donor 2 [1]: 0.6%
% CD4^+ ab^+ Donor 1 [2]: 0.7%
% CD4^+ ab^+ Donor 2 [2]: 0.7%
% CD8^+ ab^+ Donor 1 [2]: 0.5%
% CD8^+ ab^+ Donor 2 [2]: 0.7%
Substance: Isotype Control (Negative Control) (antibody)
